Results on seven molecules are retold here after patent publication US20200002414A1 (published 2020).

Experiment [1] deals with T1, human Ror2 (human, UniProt Q01974 34-403, limits assumed).
T1 construct: also called hROR2; receptor tyrosine kinase-like orphan receptor 2
As to the kind of experiment: ELISA, human Ror2, pH 6.0.

Experiment [2] concerns the target T1, human Ror2. As to the kind of experiment: ELISA, human Ror2, pH 7.4. In general terms: An ELISA detects its analyte on a solid surface through an enzyme-linked reagent.
The target in experiment [3] is T1, human Ror2. Description: ELISA, human Ror2; ratio of signal at pH 6.0 to pH 7.4.

T1 sequence (Q01974 34-403 limits assumed): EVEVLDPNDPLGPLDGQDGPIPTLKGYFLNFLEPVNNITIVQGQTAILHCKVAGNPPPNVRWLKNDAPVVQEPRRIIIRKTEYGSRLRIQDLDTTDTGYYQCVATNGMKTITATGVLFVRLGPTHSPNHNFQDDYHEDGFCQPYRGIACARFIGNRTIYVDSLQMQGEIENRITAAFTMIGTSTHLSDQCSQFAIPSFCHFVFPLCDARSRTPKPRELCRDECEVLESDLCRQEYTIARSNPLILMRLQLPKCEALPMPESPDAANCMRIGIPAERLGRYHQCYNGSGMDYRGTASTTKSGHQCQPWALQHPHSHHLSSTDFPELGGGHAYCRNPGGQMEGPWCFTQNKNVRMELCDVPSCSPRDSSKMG

B1: LC-S092D (antibody, V domains shown)
VH: EVQLQQSGPELVKPGASVKISCKTSGYTFTEYTMHWMKQSHRKSLEWIGGINTNNGGTGYNQKFKGKATLTVDKSSSTAYMELRSLTSEDSAVYFCARGSLYSYGNSYFDYWGQGTLVTVSS
VL: QIVLTQSPAIMSASPGEKVTITCSATSSVSYMHWFQQKPGTSPKLWIYGTSNLASGVPARFSGSGSGTSYSLTISRMEAEDAATYYCQQRSDYPFTFGQGTKVEIK
For the molecule B1, the “Affinity ELISA pH 6.0” value in experiment [1] came out at 1.13. Moreover, in experiment [2], the “Affinity ELISA pH 7.4” value was 1.12. Moreover, the “ratio, pH 6.0/7.4” value in experiment [3] is 1.

B2: LC-T096D (antibody, V domains shown)
VH: EVQLQQSGPELVKPGASVKISCKTSGYTFTEYTMHWMKQSHRKSLEWIGGINTNNGGTGYNQKFKGKATLTVDKSSSTAYMELRSLTSEDSAVYFCARGSLYSYGNSYFDYWGQGTLVTVSS
VL: QIVLTQSPAIMSASPGEKVTITCSATSSVSYMHWFQQKPGTSPKLWIYGTSNLASGVPARFSGSGSGTSYSLTISRMEAEDAATYYCQQRSSYPFDFGQGTKVEIK
Consider B2, for which, in experiment [1], the “Affinity ELISA pH 6.0” value amounted to 0.755. Further, the “Affinity ELISA pH 7.4” value in experiment [2] is 0.474. The “ratio, pH 6.0/7.4” value in experiment [3] amounted to 1.59.

B3: LC-S092V (antibody, V domains shown)
VH: EVQLQQSGPELVKPGASVKISCKTSGYTFTEYTMHWMKQSHRKSLEWIGGINTNNGGTGYNQKFKGKATLTVDKSSSTAYMELRSLTSEDSAVYFCARGSLYSYGNSYFDYWGQGTLVTVSS
VL: QIVLTQSPAIMSASPGEKVTITCSATSSVSYMHWFQQKPGTSPKLWIYGTSNLASGVPARFSGSGSGTSYSLTISRMEAEDAATYYCQQRSVYPFTFGQGTKVEIK
B3: in experiment [1], the “Affinity ELISA pH 6.0” value came out at 1.23. Also, the “Affinity ELISA pH 7.4” value in experiment [2] was 1.18. In experiment [3], the “ratio, pH 6.0/7.4” value amounted to 1.04.

B4: LC-F097D (antibody, V domains shown)
VH: EVQLQQSGPELVKPGASVKISCKTSGYTFTEYTMHWMKQSHRKSLEWIGGINTNNGGTGYNQKFKGKATLTVDKSSSTAYMELRSLTSEDSAVYFCARGSLYSYGNSYFDYWGQGTLVTVSS
VL: QIVLTQSPAIMSASPGEKVTITCSATSSVSYMHWFQQKPGTSPKLWIYGTSNLASGVPARFSGSGSGTSYSLTISRMEAEDAATYYCQQRSSYPFTDGQGTKVEIK
For the molecule B4, the “Affinity ELISA pH 6.0” value in experiment [1] was 0.19. In addition, the “Affinity ELISA pH 7.4” value in experiment [2] was determined as 0.107. In experiment [3], the “ratio, pH 6.0/7.4” value turned out to be 1.77.

B5: LC-F097E (antibody, V domains shown)
VH: EVQLQQSGPELVKPGASVKISCKTSGYTFTEYTMHWMKQSHRKSLEWIGGINTNNGGTGYNQKFKGKATLTVDKSSSTAYMELRSLTSEDSAVYFCARGSLYSYGNSYFDYWGQGTLVTVSS
VL: QIVLTQSPAIMSASPGEKVTITCSATSSVSYMHWFQQKPGTSPKLWIYGTSNLASGVPARFSGSGSGTSYSLTISRMEAEDAATYYCQQRSSYPFTEGQGTKVEIK
For the molecule B5, the “Affinity ELISA pH 6.0” value in experiment [1] was found to be 0.489. Also, the “Affinity ELISA pH 7.4” value in experiment [2] was found to be 0.215. Also, the “ratio, pH 6.0/7.4” value in experiment [3] was 2.28.

B6: LC-S030D (antibody, V domains shown)
VH: EVQLQQSGPELVKPGASVKISCKTSGYTFTEYTMHWMKQSHRKSLEWIGGINTNNGGTGYNQKFKGKATLTVDKSSSTAYMELRSLTSEDSAVYFCARGSLYSYGNSYFDYWGQGTLVTVSS
VL: QIVLTQSPAIMSASPGEKVTITCSATSSVDYMHWFQQKPGTSPKLWIYGTSNLASGVPARFSGSGSGTSYSLTISRMEAEDAATYYCQQRSSYPFTFGQGTKVEIK
B6: in experiment [1], the “Affinity ELISA pH 6.0” value was 0.733. The “Affinity ELISA pH 7.4” value in experiment [2] was determined as 0.252. Moreover, in experiment [3], the “ratio, pH 6.0/7.4” value was determined as 2.91.

B7: LC-Y031C (antibody, V domains shown)
VH: EVQLQQSGPELVKPGASVKISCKTSGYTFTEYTMHWMKQSHRKSLEWIGGINTNNGGTGYNQKFKGKATLTVDKSSSTAYMELRSLTSEDSAVYFCARGSLYSYGNSYFDYWGQGTLVTVSS
VL: QIVLTQSPAIMSASPGEKVTITCSATSSVSCMHWFQQKPGTSPKLWIYGTSNLASGVPARFSGSGSGTSYSLTISRMEAEDAATYYCQQRSSYPFTFGQGTKVEIK
Consider B7, for which the “Affinity ELISA pH 6.0” value in experiment [1] turned out to be 1.34. Moreover, the “Affinity ELISA pH 7.4” value in experiment [2] stood at 0.7. Further, the “ratio, pH 6.0/7.4” value in experiment [3] is 1.92.
